Non-standard residues stand in square brackets, D forms with d. No end group written: not given here. *: point of attachment. X10 = 1‑((2,4-dinitrophenyl)sulfonyl)piperidin‑4‑yl carbamate, O=C(OC1CCN(S(=O)(=O)c2ccc([N+](=O)[O-])cc2[N+](=O)[O-])CC1)*; X11 = 1‑((3-fluorophenyl)sulfonyl)piperidin‑4‑yl carbamate, O=C(OC1CCN(S(=O)(=O)c2cccc(F)c2)CC1)*; X13 = 1‑((2-fluorophenyl)sulfonyl)piperidin‑4‑yl carbamate, O=C(OC1CCN(S(=O)(=O)c2ccccc2F)CC1)*; X12 = 1‑(mesitylsulfonyl)piperidin‑4‑yl carbamate, Cc1cc(C)c(S(=O)(=O)N2CCC(OC(=O)*)CC2)c(C)c1; X3 = 4‑benzylpiperidin‑4‑yl carbamate, O=C(OC1(Cc2ccccc2)CCNCC1)*; X7 = 1‑acetylpiperidin‑4‑yl carbamate, CC(=O)N1CCC(OC(=O)*)CC1; kbt = C-terminal Arg ketobenzothiazole; Fmoc = O=C(OCC1c2ccccc2-c2ccccc21)*; kt = C-terminal Arg ketothiazole
T1: recombinant N-terminal His-tag HGFA serine protease domain (UniProt Q04756 373-655)
T1 sequence (looked up): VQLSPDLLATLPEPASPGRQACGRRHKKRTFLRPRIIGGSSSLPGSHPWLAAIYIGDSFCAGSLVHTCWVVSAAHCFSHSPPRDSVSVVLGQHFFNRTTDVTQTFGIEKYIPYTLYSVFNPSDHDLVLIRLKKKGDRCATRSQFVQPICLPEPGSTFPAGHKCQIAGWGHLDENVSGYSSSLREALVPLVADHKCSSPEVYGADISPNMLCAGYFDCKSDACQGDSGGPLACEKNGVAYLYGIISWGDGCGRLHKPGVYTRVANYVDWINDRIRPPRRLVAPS

T2: matriptase (#3946-SE-010, R&D Systems) (UniProt Q9Y5Y6 615-855)
T2 sequence (looked up): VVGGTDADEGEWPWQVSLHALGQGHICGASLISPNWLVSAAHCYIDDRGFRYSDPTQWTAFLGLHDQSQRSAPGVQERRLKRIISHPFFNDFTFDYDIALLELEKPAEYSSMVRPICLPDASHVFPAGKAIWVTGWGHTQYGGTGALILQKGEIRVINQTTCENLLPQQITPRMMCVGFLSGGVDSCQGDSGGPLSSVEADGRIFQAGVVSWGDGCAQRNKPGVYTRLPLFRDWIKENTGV

T3: KLK5 (#1108-SE-010, R&D Systems) (UniProt Q9Y337 23-293, limits assumed)
T3 sequence (looked up): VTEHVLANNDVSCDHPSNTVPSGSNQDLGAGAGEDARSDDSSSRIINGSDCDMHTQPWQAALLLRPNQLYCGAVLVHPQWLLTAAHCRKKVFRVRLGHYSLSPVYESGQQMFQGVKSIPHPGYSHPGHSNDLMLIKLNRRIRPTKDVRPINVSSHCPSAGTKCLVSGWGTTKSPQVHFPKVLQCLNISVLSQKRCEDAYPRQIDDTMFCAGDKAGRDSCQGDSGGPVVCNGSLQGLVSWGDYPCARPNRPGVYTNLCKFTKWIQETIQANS

B1: 1-((3-fluorophenyl)sulfonyl)piperidin-4-yl Leu-Arg-kbt carbamate (8j) (peptide)
peptide: X11-Leu-Arg-kbt
B2: 1-((2-fluorophenyl)sulfonyl)piperidin-4-yl Leu-Arg-kbt carbamate (8g) (peptide)
peptide: X13-Leu-Arg-kbt
B3: 1-((2,4-dinitrophenyl)sulfonyl)piperidin-4-yl Leu-Arg-kbt carbamate (8k) (peptide)
peptide: X10-Leu-Arg-kbt
B4: 1-(mesitylsulfonyl)piperidin-4-yl Leu-Arg-kbt carbamate (8m) (peptide)
peptide: X12-Leu-Arg-kbt
B5: 4-benzylpiperidin-4-yl Leu-Arg-kbt carbamate (8b) (peptide)
peptide: X3-Leu-Arg-kbt
B6: 1-acetylpiperidin-4-yl Leu-Arg-kbt carbamate (8e) (peptide)
peptide: X7-Leu-Arg-kbt
B7: FmocPRkbt (peptide)
peptide: Fmoc-Pro-Arg-kbt
B8: Ac-WFR-kbt, PK-1-102A1 (peptide)
peptide: Ac-Trp-Phe-Arg-kbt
B9: Ac-KQLR-kbt, ZFH7006 (peptide)
peptide: Ac-KQLR-kbt
B10: Ac-SQLR-kt, ZFH6138 (peptide)
peptide: Ac-SQLR-kt
B11: FmocWRkbt (peptide)
peptide: Fmoc-Trp-Arg-kbt
B12: Ac-SKLR kbt, ZFH7053 (peptide)
peptide: Ac-SKLR-kbt
B13: Ac-dWFR-kbt, PK-1-89A1 (peptide)
peptide: Ac-[dW]-Phe-Arg-kbt
B14: Ac-WLFR-kbt, ZFH7064 (peptide)
peptide: Ac-WLFR-kbt
B15: H-LLR-kbt V-amide ZFH7182 (peptide)
peptide: Leu-Leu-Arg-{kbt-Val-NH2}
modifications: also: N-terminal cap inconsistent in filing (H or Ac)
B16: Ac-LLR-kt, ZFH6201 (peptide)
peptide: Ac-Leu-Leu-Arg-kt

target: T1, recombinant N-terminal His-tag HGFA …; assay: cell-based or functional assay

**Q.** B1 was tested. Which “HGFA IC50” value did it give?
**A.** The value was > 20 µM.

**Q.** For B2, which “HGFA IC50” value is on record?
**A.** The value was 18 µM.

**Q.** B3 was tested. Which “HGFA IC50” value did it give?
**A.** The value was > 20 µM.

**Q.** With B4 as the binder, how does the “HGFA IC50” value read?
**A.** Its value is 8.8 µM.

**Q.** Which “HGFA IC50” value does the source give for B5 here?
**A.** Its value is 1.2 µM.

**Q.** With B6 as the binder, how does the “HGFA IC50” value read?
**A.** Its value is > 20 µM.

target: T2, matriptase (#3946-SE-010, R&D Systems); assay: cell-based or functional assay

**Q.** Which “Matriptase IC50” value does the source give for B1 here?
**A.** Its value is 7.5 µM.

**Q.** With B2 as the binder, how does the “Matriptase IC50” value read?
**A.** Its value is 4.5 µM.

**Q.** With B3 as the binder, how does the “Matriptase IC50” value read?
**A.** Its value is 10 µM.

**Q.** Which “Matriptase IC50” value does the source give for B4 here?
**A.** The value was > 20 µM.

**Q.** Which “Matriptase IC50” value does the source give for B5 here?
**A.** Its value is 0.03 µM.

**Q.** Which “Matriptase IC50” value does the source give for B6 here?
**A.** The value was 0.64 µM.

target: T4, activated hepsin (#4776-SE-010, R&D Systems) (UniProt P05981 45-417, limits assumed); assay: cell-based or functional assay
T4 sequence (P05981 45-417 limits assumed): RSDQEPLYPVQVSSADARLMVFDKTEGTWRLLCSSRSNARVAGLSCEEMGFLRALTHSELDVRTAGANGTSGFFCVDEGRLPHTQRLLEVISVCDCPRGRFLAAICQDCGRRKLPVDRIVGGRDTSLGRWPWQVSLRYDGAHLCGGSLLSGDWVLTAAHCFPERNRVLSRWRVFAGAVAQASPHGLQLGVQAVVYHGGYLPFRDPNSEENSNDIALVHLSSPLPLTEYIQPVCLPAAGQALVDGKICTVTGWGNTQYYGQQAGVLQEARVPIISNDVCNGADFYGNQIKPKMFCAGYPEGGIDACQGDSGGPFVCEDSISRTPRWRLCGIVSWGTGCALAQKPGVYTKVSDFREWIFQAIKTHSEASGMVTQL

**Q.** With B1 as the binder, how does the “Hepsin IC50” value read?
**A.** Its value is 0.07 µM.

**Q.** How did the “Hepsin IC50” value turn out when B2 was run?
**A.** Its value is 0.07 µM.

**Q.** For B3, which “Hepsin IC50” value is on record?
**A.** Its value is 0.11 µM.

**Q.** With B4 as the binder, how does the “Hepsin IC50” value read?
**A.** Its value is 0.11 µM.

**Q.** Which “Hepsin IC50” value does the source give for B5 here?
**A.** The value was 0.0006 µM.

**Q.** B6 was tested. Which “Hepsin IC50” value did it give?
**A.** The value was 0.02 µM.

target: recombinant thrombin (#1473-SE-010, R&D Systems) (UniProt P00734 44-622); assay: cell-based or functional assay

**Q.** For B5, which “Thrombin IC50” value is on record?
**A.** Its value is > 20 µM.

target: Factor Xa (#1063-SE-010, R&D Systems) (UniProt P00742 41-488, limits assumed); assay: cell-based or functional assay
Sequence (P00742 41-488 limits assumed): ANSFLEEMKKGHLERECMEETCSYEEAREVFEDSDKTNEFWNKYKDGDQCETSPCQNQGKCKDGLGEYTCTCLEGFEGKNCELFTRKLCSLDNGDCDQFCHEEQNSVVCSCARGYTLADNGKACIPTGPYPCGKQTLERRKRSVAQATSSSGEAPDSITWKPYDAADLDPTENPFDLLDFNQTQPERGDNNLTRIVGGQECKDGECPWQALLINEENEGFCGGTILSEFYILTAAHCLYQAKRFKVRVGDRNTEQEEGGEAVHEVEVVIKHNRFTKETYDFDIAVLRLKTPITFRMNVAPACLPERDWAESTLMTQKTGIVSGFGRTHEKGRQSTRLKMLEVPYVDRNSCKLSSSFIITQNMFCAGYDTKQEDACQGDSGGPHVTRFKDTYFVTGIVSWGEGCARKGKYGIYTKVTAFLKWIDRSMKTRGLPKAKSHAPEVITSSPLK

**Q.** B5 was tested. Which “Factor Xa IC50” value did it give?
**A.** The value was 6.5 µM.

target: T3, KLK5 (#1108-SE-010, R&D Systems); assay: cell-based or functional assay

**Q.** How did the “KLK5 IC50” value turn out when B7 was run?
**A.** The value was 3.68 µM.

**Q.** With B8 as the binder, how does the “KLK5 IC50” value read?
**A.** Its value is > 20 µM.

**Q.** With B9 as the binder, how does the “KLK5 IC50” value read?
**A.** Its value is 1.79 µM.

**Q.** B10 was tested. Which “KLK5 IC50” value did it give?
**A.** Its value is 3.94 µM.

**Q.** B11 was tested. Which “KLK5 IC50” value did it give?
**A.** The value was 4.39 µM.

**Q.** B12 was tested. Which “KLK5 IC50” value did it give?
**A.** The value was 2.12 µM.

target: T1, recombinant N-terminal His-tag HGFA …; assay: cell-based or functional assay; remark: another data set of the same source

**Q.** How did the “HGFA IC50” value turn out when B13 was run?
**A.** The value was 346 nM.

**Q.** How did the “HGFA IC50” value turn out when B9 was run?
**A.** Its value is 60 nM.

**Q.** Which “HGFA IC50” value does the source give for B14 here?
**A.** The value was 266 nM.

**Q.** How did the “HGFA IC50” value turn out when B15 was run?
**A.** Its value is 44 nM.

**Q.** For B16, which “HGFA IC50” value is on record?
**A.** The value was 506 nM.

target: T2, matriptase (#3946-SE-010, R&D Systems); assay: cell-based or functional assay; remark: another data set of the same source

**Q.** Which “Matriptase IC50” value does the source give for B13 here?
**A.** The value was 29 nM.

**Q.** Which “Matriptase IC50” value does the source give for B9 here?
**A.** Its value is 1.1 nM.

**Q.** For B14, which “Matriptase IC50” value is on record?
**A.** Its value is 12 nM.

**Q.** B16 was tested. Which “Matriptase IC50” value did it give?
**A.** The value was 56 nM.

target: T4, activated hepsin (#4776-SE-010, R&D …); assay: cell-based or functional assay; remark: another data set of the same source

**Q.** With B13 as the binder, how does the “Hepsin IC50” value read?
**A.** Its value is 100 nM.

**Q.** B9 was tested. Which “Hepsin IC50” value did it give?
**A.** The value was 0.17 nM.

**Q.** Which “Hepsin IC50” value does the source give for B14 here?
**A.** The value was 0.79 nM.

**Q.** Which “Hepsin IC50” value does the source give for B15 here?
**A.** The value was 0.01 nM.

**Q.** B16 was tested. Which “Hepsin IC50” value did it give?
**A.** The value was 4.6 nM.

target: human TMPRSS2 (human, UniProt O15393 1-492); assay: cell-based or functional assay
Sequence (O15393 whole entry): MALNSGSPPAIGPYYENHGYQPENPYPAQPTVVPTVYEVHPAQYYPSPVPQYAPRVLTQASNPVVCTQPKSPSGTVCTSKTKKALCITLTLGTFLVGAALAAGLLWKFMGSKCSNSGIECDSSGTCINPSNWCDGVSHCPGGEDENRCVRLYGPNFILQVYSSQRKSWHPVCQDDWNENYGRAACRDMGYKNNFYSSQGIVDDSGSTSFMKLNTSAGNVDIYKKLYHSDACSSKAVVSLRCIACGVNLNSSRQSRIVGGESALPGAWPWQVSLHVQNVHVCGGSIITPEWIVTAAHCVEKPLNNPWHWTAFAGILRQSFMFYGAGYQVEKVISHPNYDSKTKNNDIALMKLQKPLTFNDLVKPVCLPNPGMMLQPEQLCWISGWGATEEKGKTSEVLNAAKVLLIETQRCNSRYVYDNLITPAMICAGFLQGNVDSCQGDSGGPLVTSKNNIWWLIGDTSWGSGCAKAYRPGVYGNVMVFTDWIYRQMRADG

**Q.** B13 was tested. Which “Calu-3 EC50” value did it give?
**A.** Its value is 32 nM.

**Q.** B9 was tested. Which “Calu-3 EC50” value did it give?
**A.** The value was 78 nM.

**Q.** How did the “Calu-3 EC50” value turn out when B14 was run?
**A.** Its value is 150 nM.

**Q.** With B15 as the binder, how does the “Calu-3 EC50” value read?
**A.** Its value is 2060 nM.

**Q.** With B16 as the binder, how does the “Calu-3 EC50” value read?
**A.** Its value is 349 nM.

Source: patent publication US20220380407A1 (WASHINGTON UNIVERSITY, published 2022)
